Some results are limits rather than exact numbers.

The nature of data set [1]: DIO mice treated with 600U for 20 weeks. Type of data set: in vivo, C57BL/6J male mice. The text has this: Together, these findings support that N-ABD094-rhArg (SEQ ID NO: 50) is safe and effective for long term use.
Data set [2] can be described thus: Arginase specific activity, DAMO colorimetric assay. The settings on record: 37° C., pH 7.4, purified preparation. It counts as biochemical. The text has this: The arginase activity of the fusion proteins described herein can be substantially the same, lower, or higher than the activity of the arginase polypeptide from which it is derived. One unit of arginase activity is defined as the amount of fusion protein [e.g., BHA (SEQ ID NO; 75), BAH (SEQ ID NO: 76), N-ABD-rhArg (SEQ ID NO: 49), or N-ABD094-rhArg (SEQ ID NO: 50)] or arginase [e.g., BCA (SEQ ID NO: 70)] that catalyzes the production of 1 μmol of urea per min under standard assay conditions. The specific activity of the enzyme is expressed as activity units per mg of protein. Under standard diacetylmonoxime (DAMO) assay conditions (37° C., pH 7.4), the fusion proteins can have a specific activity that is about 5%, about 10%, about 15%, about 20%, about 25% about 30%, about 35% or about 40% lower or higher than the corresponding arginase polypeptide which it incorporates. In certain embodiments, fusion proteins can have a specific activity that is about 5% to about 40%, about 10% to about 40%, about 10% to about 35%, about 10% to about 30%, about 20% to about 30%, about 20% to about 35%, about 15% to about 30%, about 15% to about 25%, or about 10% to about 20% lower or higher than the corresponding arginase polypeptide which it incorporates.
One unit of enzyme activity is defined as the amount of enzyme (BCA, BHA or BAH) that catalyzes the production of 1 μmol urea per min under standard assay conditions. Specific activity of the enzyme is expressed as activity units per mg of protein.
Briefly, a serial dilution of 0.3 mL BCA solutions together with 0.15 mL water and 720 mM arginine substrate at pH 7.4 was pre-incubated separately at 37° C. for 10 min. The enzymatic reaction was carried out by adding 0.3 mL arginine substrate to the pre-incubated enzyme solutions. […]
The urea formed from the above reaction was quantified using the DAMO direct colorimetric method described by World Health Organization (WHO). […] The absorbance at 540 nm was measured. […]

Data set [3] can be described thus: Prevention of HFD-induced obesity, female mice. It counts as in vivo, C57BL/6J female mice. The settings on record: 300U weekly. The text has this: FIG. 21 illustrates that concurrent treatment with 300U N-ABD094-rhArg (SEQ ID, NO: 50) [HFD(rhArg) group] once a week could effectively prevent HFD-induced obesity in C57BL/6J female mice. (A) Bodyweight of mice fed a HFD from 8 week old for 12 weeks, and currently treated with N-ABD094-rhArg or vehicle. Vehicle-treated female mice fed a LFD served as the lean control [LFD(vehicle) group]. (B) Weight of fat pad at main visceral (perigonadal, perirenal and mesenteric) and subcutaneous (inguinal) depots. *P<0.05, one-way ANOVA followed by Fisher's LSD. Data are expressed as mean±SEM, n=5 for each group.
FIG. 22 illustrates that concurrent treatment with 300U N-ABD094-rhArg (SEQ ID NO: 50) [HFD(rhArg) group] once a week could effectively prevent HFD-induced insulin resistance and glucose intolerance in C57BL/6J female mice. (A) Insulin tolerance test (ITT) conducted at 7 week after feeding a HFD. (B) Glucose tolerance test (GTT) conducted at 11 week after feeding a HFD. ITT and GTT results are expressed as area under the curve (AUC). *P<0.05, one-way ANOVA followed by Fisher's LSD. Data are expressed as mean±SEM, n=5 for each group.
After confirming the anti-obesity effect of N-ABD094-rhArg (SEQ ID NO: 50) on male mice, the effect of N-ABD094-rhArg (SEQ ID NO: 50) on female mice (n=5 in each group) was studied to determine if there was any sex difference.

B1: N-ABD094-rhArg: albumin binding domain ABD094 fused N-terminally to recombinant human arginase I, SEQ ID NO: 50 (protein)
chain: MHHHHHHDEAVDANSLAEAKEAANAELDSYGVSDFYKRLIDKAKTVEGVEALKDAILAALPSGSNNNNNNGSGGMSAKSRTIGIIGAPFSKGQPRGGVEEGPTVLRKAGLLEKLKEQECDVKDYGDLPFADIPNDSPFQIVKNPRSVGKASEQLAGKVAEVKKNGRISLVLGGDHSLAIGSISGHARVHPDLGVIWVDAHTDINTPLTTTSGNLHGQPVSFLLKELKGKIPDVPGFSWVTPCISAKDIVYIGLRDVDPGEHYILKTLGIKYFSMTEVDRLGIGKVMEETLSYLLGRKKRPIHLSFDVDGLDPSFTPATGTPVVGGLTYREGLYITEEIYKTGLLSGLDIMEVNPSLGKTPEEVTRTVNTAVAITLACFGLAREGNHKPIDYLNPPK
modifications: Mn2+; N-ABD094-rhArg, Synthesized in the Lab
With B1, the plasma arginine concentrations in data set [1] (600U for 20 weeks, Biochrom 30 detection limit) is < 3 µM. The bodyweight result in data set [1] (600U, by 5 weeks, maintained to 20 weeks without rebound) is “reduced to a level similar to the lean control mice”. Further, in data set [2], the Specific activity stood at 184 U/mg. Moreover, the “protection from weight gain and excessive accumulation of WAT” value in data set [3] (12 weeks) is reported as “similarly effective”. Also, the “insulin sensitivity (ITT) and glucose tolerance (GTT)” value in data set [3] (ITT week 7, GTT week 11) is “improve”.
